The Human Domainome abundance scans (Beltran et al. 2025)
± gives the uncertainty stated by the source.

B1: RAS guanyl-releasing protein 1, residues 539 to 593; numbered along this chain, O95267 (parent)
chain: GFPHNFQETTYLKPTFCDNCAGFLWGVIKQGYRCKDCGMNCHKQCKDLVVFECKK

Variants of: B1
Assay: abundance fitness (aPCA) (normalised: wild type 0, dead -1); higher = more abundant; growth selection in yeast, the domain comes from the species named
Details: Homo sapiens
With GFPHNFQETTYLKPTFCDNCAGFLWGVIKQGYRCKDCSMNCHKQCKDLVVFECKK the abundance fitness was -0.02 ± 0.064.
Work on GFPHNFQETTYLKPTFCDNCAGFLWGVIKQGYRCKDCWMNCHKQCKDLVVFECKK yielded an abundance fitness of -0.109 ± 0.071.
GFPHNFQETTYLKPTFCDNCAGFLWGVIKQGYRCKDCAMNCHKQCKDLVVFECKK showed an abundance fitness of 0.032 ± 0.079.
In the case of GFPHNFQETTYLKPTFCDNCAGFLWGVIKQGYRCKDCGMNCHNQCKDLVVFECKK, the abundance fitness is reported as -0.417 ± 0.18.
For GFPHNFQETTYLKPTFCDNCAGFLWGVIKQGYRCKDCGMNCHRQCKDLVVFECKK, the abundance fitness was -0.094 ± 0.083.
Variant GFPHNFQETTYLKPTFCDNCAGFLWGVIKQGYRCKDCGMNCHCQCKDLVVFECKK has an abundance fitness of -0.053 ± 0.066.
For GFPHNFQETTYLKPTFCDNCAGFLWGVIKQGYRCKDCGMNCHEQCKDLVVFECKK, the abundance fitness was -0.002 ± 0.068.
GFPHNFQETTYLKPTFCDNCAGFLWGVIKQGYRCKDCGMNKHKQCKDLVVFECKK gave an abundance fitness of -0.139 ± 0.084.
Work on GFPHNFQEMTYLKPTFCDNCAGFLWGVIKQGYRCKDCGMNCHKQCKDLVVFECKK yielded an abundance fitness of 0.034 ± 0.076.
GFPHNFQETTYLLPTFCDNCAGFLWGVIKQGYRCKDCGMNCHKQCKDLVVFECKK gave an abundance fitness of -0.028 ± 0.067.
GFPHNFQETTYLHPTFCDNCAGFLWGVIKQGYRCKDCGMNCHKQCKDLVVFECKK showed an abundance fitness of 0.015 ± 0.087.
GFPHNFQETTYLVPTFCDNCAGFLWGVIKQGYRCKDCGMNCHKQCKDLVVFECKK showed an abundance fitness of -0.106 ± 0.086.
In the case of GFPHNFQETTYLIPTFCDNCAGFLWGVIKQGYRCKDCGMNCHKQCKDLVVFECKK, the abundance fitness is reported as -0.257 ± 0.17.
GFPHNFQETTYLDPTFCDNCAGFLWGVIKQGYRCKDCGMNCHKQCKDLVVFECKK showed an abundance fitness of -0.603 ± 0.26.
With GFPHNFQETTYLKPTFCDNCAGFLWGVIKQGYRCKDCGMNCHKQNKDLVVFECKK the abundance fitness was -0.647 ± 0.34.
GFPHNFQETTYLKPTFCDNCAGFLWGVIKQGYRCKDCGMNCHKQFKDLVVFECKK showed an abundance fitness of -0.514 ± 0.056.
Work on GFPHNFQETTYLKPTFCDNCAGFLWGVIKQGYRCKDCGMNCHKQSKDLVVFECKK yielded an abundance fitness of -0.486 ± 0.094.
In the case of GFPHNFQETTYLKPTFCDNCANFLWGVIKQGYRCKDCGMNCHKQCKDLVVFECKK, the abundance fitness is reported as -0.298 ± 0.23.
GFPHNFQETTYLKPTFCDNCAGFLWGVIKQGFRCKDCGMNCHKQCKDLVVFECKK gave an abundance fitness of -0.312 ± 0.14.
For GFPHNFQETTYLKPTFCDNCAGFLWGVIKQGDRCKDCGMNCHKQCKDLVVFECKK, the abundance fitness was -0.224 ± 0.12.
GFPHNFQETTYLKPTFCDNCAGFLWGVIKQGSRCKDCGMNCHKQCKDLVVFECKK showed an abundance fitness of -0.026 ± 0.084.
With GFPHNFQETTYLKPTFCDNCAGFLWGVIKQGARCKDCGMNCHKQCKDLVVFECKK the abundance fitness was -0.171 ± 0.073.
For GFPHNFQETTYLKPTFCDNCAGFLWGVIKQGTRCKDCGMNCHKQCKDLVVFECKK, the abundance fitness was 0.093 ± 0.095.
For GFPHNFQETTYLKPTFCDNCAGFLWGVIKQGYRCKSCGMNCHKQCKDLVVFECKK, the abundance fitness was -0.028 ± 0.075.
Work on GFPHNFQETTYLKPTFCDNCAGFLWGVIKQGYRCKNCGMNCHKQCKDLVVFECKK yielded an abundance fitness of -0.006 ± 0.12.
Work on GFPHNFQETTYLKPTFCDNCAGFLWGVIKQGYRCKDNGMNCHKQCKDLVVFECKK yielded an abundance fitness of -0.824 ± 0.3.
GFPHNFQETTYLKPTFVDNCAGFLWGVIKQGYRCKDCGMNCHKQCKDLVVFECKK gave an abundance fitness of -0.878 ± 0.12.
GFPHNFQETTYLKPTFHDNCAGFLWGVIKQGYRCKDCGMNCHKQCKDLVVFECKK showed an abundance fitness of -0.784 ± 0.26.
GFPHNFQETTYLKPTFADNCAGFLWGVIKQGYRCKDCGMNCHKQCKDLVVFECKK showed an abundance fitness of -1.09 ± 0.09.
Variant GFPHNFQETTYLKPTFCDNCAGFLWGVIKQGYRRKDCGMNCHKQCKDLVVFECKK has an abundance fitness of -0.954 ± 0.15.
With GFPHNFQETTYLKPTFCDNCAGFLWGVIKQGYRFKDCGMNCHKQCKDLVVFECKK the abundance fitness was -0.729 ± 0.071.
In the case of GFPHNFEETTYLKPTFCDNCAGFLWGVIKQGYRCKDCGMNCHKQCKDLVVFECKK, the abundance fitness is reported as -0.073 ± 0.076.
With GFPHNFGETTYLKPTFCDNCAGFLWGVIKQGYRCKDCGMNCHKQCKDLVVFECKK the abundance fitness was -0.116 ± 0.068.
For GFPHNFQETTYLKPTFCDNCAGFLWGKIKQGYRCKDCGMNCHKQCKDLVVFECKK, the abundance fitness was -0.434 ± 0.091.
Work on GFPHNFQETTYLKPTFCDNCAGFLWGEIKQGYRCKDCGMNCHKQCKDLVVFECKK yielded an abundance fitness of -0.17 ± 0.1.
In the case of GFPHNFQETTYLKPTFCDNCAGFLWGLIKQGYRCKDCGMNCHKQCKDLVVFECKK, the abundance fitness is reported as -0.063 ± 0.07.
With GFPHNFQETTSLKPTFCDNCAGFLWGVIKQGYRCKDCGMNCHKQCKDLVVFECKK the abundance fitness was 0.028 ± 0.083.
Work on GFPHNFQETTQLKPTFCDNCAGFLWGVIKQGYRCKDCGMNCHKQCKDLVVFECKK yielded an abundance fitness of -0.458 ± 0.41.
For GFPHNFQETTYLKPTFCDNCAGFLWGVIKQGYRCKDCGMNCHKQCKDLVVFMCKK, the abundance fitness was -0.121 ± 0.053.
Work on GFPHNFQETTYLKPTFCDNCAGFKWGVIKQGYRCKDCGMNCHKQCKDLVVFECKK yielded an abundance fitness of -0.333 ± 0.1.
For GFPHNFQETTYLKPTFCDNCAGFWWGVIKQGYRCKDCGMNCHKQCKDLVVFECKK, the abundance fitness was -0.617 ± 0.054.
GFPHNFQETTYLKPTFCDNCAGFFWGVIKQGYRCKDCGMNCHKQCKDLVVFECKK showed an abundance fitness of -0.006 ± 0.064.
With GFPHNFQETTYLKPTFCKNCAGFLWGVIKQGYRCKDCGMNCHKQCKDLVVFECKK the abundance fitness was -0.017 ± 0.12.
Variant GFPHNFQETTYLKPTFCCNCAGFLWGVIKQGYRCKDCGMNCHKQCKDLVVFECKK has an abundance fitness of -0.253 ± 0.1.
Work on GFPHNFQETTYLKPTFCDNCAGALWGVIKQGYRCKDCGMNCHKQCKDLVVFECKK yielded an abundance fitness of -0.433 ± 0.13.
GFPHNFQETTYLKPTFCDNCAGKLWGVIKQGYRCKDCGMNCHKQCKDLVVFECKK showed an abundance fitness of -0.297 ± 0.1.
For GFPHNFQETTYLKPTFCDNCAGFLWGVIKQGYRCKDCGMNCHKQCKILVVFECKK, the abundance fitness was -0.211 ± 0.1.
GFPHNFQETTYLKPTFCDNCAGFLWGVIKQGYRCKDCGMNCHKQCKLLVVFECKK showed an abundance fitness of -0.141 ± 0.063.
